Data set [1] concerns the target T1, Abz-LRETGK(Dnp)-CONH2.
T1 chain: LRETGK

Data set [2] concerns the target T2, Abz-LPESGK(Dnp)-CONH2.
T2 chain: LPESGK

Data set [3] has as its target T3, Alexa Fluor 488-LAETGG.
T3 chain: KLAETGG

In data set [4] the target is T4, Abz-LPETGK(Dnp)-CONH2.
T4 chain: LPETGK

The target of data set [5] is T5, Abz-LSETGK(Dnp)-CONH2.
T5 chain: LSETGK

In data set [6] the target is T6, Gly-Gly-Gly-COOH.
T6 chain: GGG

The target in data set [7] is T7, Alexa Fluor 647-LPESGG.
T7 chain: KLPESGG

Data set [8] has as its target T8, Abz-LAETGK(Dnp)-CONH2.
T8 chain: LAETGK

Data set [9] concerns the target T9, Abz-LAETGK(Dnp)-CONH2 (N-terminus assumed; SMILES CC(C)C[C@H](NC(=O)c1ccccc1N)C(=O)N[C@@H](C)C(=O)N[C@@H](CCC(=O)O)C(=O)N[C@H](C(=O)NCC(=O)N[C@@H](CCCCNc1ccc([N+](=O)[O-])cc1[N+](=O)[O-])C(N)=O)[C@@H](C)O).
T9 peptide: [2Abz]LAETGK(Dnp)-NH2
The data set is described as follows: cell-based or functional assay.

Data set [10] addresses T10, Abz-LPECGK(Dnp)-CONH2.
T10 chain: LPECGK

The target in data set [11] is T11, Abz-LPEAGK(Dnp)-CONH2.
T11 chain: LPEAGK

Data set [12] addresses T12, human fetuin A, endogenous in human plasma, P02765.
T12 chain: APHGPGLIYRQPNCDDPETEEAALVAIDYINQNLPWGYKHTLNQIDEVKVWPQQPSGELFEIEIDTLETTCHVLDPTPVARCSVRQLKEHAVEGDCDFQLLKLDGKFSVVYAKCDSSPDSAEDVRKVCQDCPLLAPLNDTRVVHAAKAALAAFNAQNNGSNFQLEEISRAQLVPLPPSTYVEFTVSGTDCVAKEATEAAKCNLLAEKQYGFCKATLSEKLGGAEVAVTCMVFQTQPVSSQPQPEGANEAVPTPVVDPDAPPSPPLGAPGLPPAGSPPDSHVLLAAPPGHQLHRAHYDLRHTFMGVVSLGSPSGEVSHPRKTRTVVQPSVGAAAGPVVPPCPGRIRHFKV

Substitutions are numbered along the chain they refer to. Several values for one entry are separate records, joined by “and”; a condition that tells them apart may be missing. Equal values may be shown once. Non-standard residues stand in square brackets, D forms with d. No end group written: not given here. *: point of attachment. Dnp = O=[N+]([O-])c1ccc(*)c([N+](=O)[O-])c1; 2Abz = Nc1ccccc1C(=O)O

What is called Km is the substrate concentration at which the rate is half of its maximum. As usually defined, the kcat/Km is the second-order rate constant that governs catalysis at low substrate concentration.

B1: eSrtA(2A-9) (protein)
chain: QAKPQIPKDKSKVAGYIEIPDADIKEPVYPGPATREQLNRGVCFHDENESLDDQNISIAGHTFIDRPNYQFTNLKAAKPGSMVYFKVGNETRIYKMTSIRKVHPNAVEVLDEQEGKDKQLTLVTCDDYNEETGVWESRKIFVATEVK
As to B1, in data set [1], the Km amounted to 1070 µM and the kcat/Km stood at 233 M⁻¹ s⁻¹. Besides, in data set [2], the Km came out at 4800 µM; the Rel. Activity (fold below the enzyme's best substrate, LAETG) worked out at 5940 fold; the kcat/Km was 1.42 M⁻¹ s⁻¹. Further, in [3], the “conjugation of fluorophore-peptide to GGG-diblock (gel fluorescence), cognate pair” value was “Significant peptide-diblock conjugation was observed only for cognate pairs of enzyme and substrate, with no detectable off-target substrate conjugation”; the “modification of GGG-PEG-functionalized 96-well plates (fluorescence), cognate pair” value is “Each enzyme exhibited significant modification only on its cognate substrate”. For the same molecule, in data set [4], the Avg KM came out at 1270 µM; the Avg kcat/KM was 16.5; the Km came out at 1270 µM; the Rel. Activity (fold below the enzyme's best substrate, LAETG) was determined as 510 fold. Besides, the kcat/Km in data set [4] stood at 16.5 M⁻¹ s⁻¹. Also, in data set [5], the Michaelis constant (Km) was 331 µM and the kcat/Km came out at 355 M⁻¹ s⁻¹. In [6], the Avg KM (uM) for GGG; with LAETG (2A) peptide was 1480 µM, the Avg kcat/KM for GGG; with LAETG (2A) peptide was determined as 1070, the Km,GGG (µM); listed substrate LAETG worked out at 1480 µM and the Km,GGG (µM); listed substrate LPETG was 585 µM. In data set [6], the Km,GGG (µM); listed substrate LRETG came out at 628 µM and the Km,GGG (µM); listed substrate LSETG came out at 1270 µM. In addition, in data set [7], the “conjugation of fluorophore-peptide to GGG-diblock (gel fluorescence), non-cognate pair” value is listed as “no detectable off-target substrate conjugation” and the “modification of GGG-PEG-functionalized 96-well plates (fluorescence), non-cognate pair: no significant modification” value is recorded as “Each enzyme exhibited significant modification only on its cognate substrate”. Also, in [8], the Avg KM came to 265 µM; the Avg kcat/KM was determined as 8420; the Km amounted to 265 µM; the Specificity (relative catalytic efficiency, fold), LAETG over LPETG came to 510 fold. For the same molecule, the kcat/Km in [8] was found to be 8420 M⁻¹ s⁻¹.

B2: eSrtA(2A-6) (protein)
chain: B1 chain with C43S, D46E, P79V, I93K, K101N, H103R, N105T, E114K, S137T
As to B2, in [4], the Avg KM amounted to 3400 µM; the Avg kcat/KM was determined as 47.7; the Km, LxExG amounted to 3290 µM; the kcat/Km (Hz/M) was 47.8 Hz/M. For the same molecule, in [6], the Avg KM (uM) for GGG; with LAETG (2A) peptide turned out to be 1110 µM; the Avg kcat/KM for GGG; with LAETG (2A) peptide was 1610; the Km, GGG (uM); with LAETG peptide was found to be 1040 µM. Also, in [8], the Avg KM is 665 µM; the Avg kcat/KM came to 3930; the Km, LxExG came to 608 µM; the Specificity (relative catalytic efficiency, fold), LAETG over LPETG came out at 82.4 fold. In addition, in [8], the kcat/Km (Hz/M) worked out at 4130 Hz/M and the specificity (relative cat. Efficiency, fold), LAETG over LPETG was determined as 86.4 fold.

B3: 2A.6C (protein)
chain: B1 chain with C43S, D46E, H103R, N105T, E114K, S137T
Consider B3, for which, in [4], the Km, LxExG is 1980 µM and the kcat/Km (Hz/M) came out at 38.7 Hz/M. Further, in data set [6], the Km, GGG (uM); with LAETG peptide was determined as 642 µM. Also, in data set [8], the Km, LxExG came to 343 µM; the “increased affinity for the LAETG substrate as compared to the LPETG substrate” value is “from ˜61 (2A.6c) to ˜116fold (2Ar5)”; the kcat/Km (Hz/M) amounted to 2380 Hz/M; the specificity (relative cat. Efficiency, fold), LAETG over LPETG stood at 61.6 fold.

B4: eSrtA(2A-5) (protein)
chain: B1 chain with R40H, C43S, D46E, P79I, I93K, K101N, H103R, N105T, E114K, S137T
With B4, in data set [4], the Km, LxExG was 4900 µM and the kcat/Km (Hz/M) stood at 28.1 Hz/M. The Km, GGG (uM); with LAETG peptide in data set [6] turned out to be 2810 µM. Moreover, in data set [8], the Km, LxExG worked out at 433 µM; the “increase in kcat/Km, LAETG substrate against LPETG substrate” value is recorded as “from ˜40-fold (2Ar4) to ˜125-fold (2Ar5) increase in kcat/Km”; the “increased affinity for the LAETG substrate as compared to the LPETG substrate” value is on record as “from ˜61 (2A.6c) to ˜116fold (2Ar5)”; the kcat/Km (Hz/M) is 3260 Hz/M. The same molecule yielded a specificity (relative cat. Efficiency, fold), LAETG over LPETG in data set [8] of 116 fold.

B5: 2A.6B (protein)
chain: B1 chain with R40K, C43S, D46E, P79V, I93K, H103R, N105T, E114K, S137T
Consider B5, for which, in data set [6], the Km, GGG (uM); with LAETG peptide amounted to 642 µM. Also, in data set [8], the Km, LxExG turned out to be 310 µM and the kcat/Km (Hz/M) amounted to 2270 Hz/M.

B6: eSrtA(2A-3.5) (enzyme)
chain: QAKPQIPKDKSKVAGYIEIPDADIKEPVYPGPATREQLNRGVSFAEENESLDDQNISIAGHTFIDRPNYQFTNLKAAKKGSMVYFKVGNETRKYKMTSIRNVRPTAVEILDEQKGKDKQLTLFTCDDYNEETGVWETRKIFVATEVK
For B6, in [4], the Avg KM turned out to be 3750 µM; the Avg kcat/KM was found to be 406; the Km, LxExG is 4110 µM; the Specificity (relative catalytic efficiency, fold), LPETG over LAETG amounted to 2.25 fold. In addition, the kcat/Km (Hz/M) in [4] was determined as 386 Hz/M. Further, in [8], the Avg KM amounted to 6370 µM; the Avg kcat/KM was found to be 180; the Km, LxExG stood at 7160 µM; the kcat/Km (Hz/M) is 175 Hz/M. Besides, the “specificity (relative cat. Efficiency, fold), by the kcat/Km cells LPETG over LAETG” value in data set [9] came to 2.21 fold.

B7: 4S.6C (protein)
chain: B6 chain with N39D, A45V, A59T, F63A, K75R, R103K, I109V, F123V, E130F
As for B7, in [2], the Km, LxExG worked out at 156 µM; the kcat/Km (Hz/M) came to 4350 Hz/M; the specificity (relative cat. Efficiency, fold), LPESG over LPETG was determined as 18.5 fold. In data set [4], the Km, LxExG came to 16.1 µM and the kcat/Km (Hz/M) is 235 Hz/M. In addition, the Km,GGG (uM); with LPESG peptide in [6] was 36000 µM.

B8: eSrtA(4S-9) (protein)
chain: QAKPQIPKDKSKVAGYIEIPDADIKEPVYPGPATREQLDRGVCFVEENESLDDQNISITGHTAIDRPNYQFTNLRAAKKGSMVYLKVGNETRKYKMTSIRNVKPTAVEVLDEQKGKDKQLTLVTCDDYNFETGVWETRKIFVATEVK
With B8, in data set [10], the Km was determined as 69 µM and the kcat/Km was 74000 M⁻¹ s⁻¹. Also, in [11], the Km was found to be 154 µM and the kcat/Km came to 12300 M⁻¹ s⁻¹. In addition, in data set [2], the Avg KM amounted to 123 µM; the Avg kcat/KM is 17600; the Km is 113 µM; the Specificity, LPESG over LPETG came out at 25 fold. Also, in [2], the “difference in transpeptidation of LPESG over LPETG” value is given as “an approximately 40-fold difference in transpeptidation of LPESG (SEQ ID NO: 3) over LPETG (SEQ ID NO: 4) by eSrtA(4S-9)”; the kcat/Km was 18200 M⁻¹ s⁻¹ and 18000 M⁻¹ s⁻¹. In addition, in data set [3], the “conjugation of fluorophore-peptide to GGG-diblock (gel fluorescence), non-cognate pair” value is recorded as “no detectable off-target substrate conjugation” and the “modification of GGG-PEG-functionalized 96-well plates (fluorescence), non-cognate pair: no significant modification” value is recorded as “Each enzyme exhibited significant modification only on its cognate substrate”. In addition, in data set [4], the Avg KM was found to be 66.1 µM; the Avg kcat/KM was 706; the Km came out at 64.7 µM; the Rel. Activity (fold below the enzyme's best substrate, LPESG) is 25 fold. For the same molecule, in data set [4], the kcat/Km worked out at 720 M⁻¹ s⁻¹. In data set [6], this molecule came in with an Avg KM (uM) for GGG; with LPESG (4S) peptide of 69500 µM, an Avg KM (uM) for GGG; with LPETG (wt) peptide of 97600 µM, an Avg kcat/KM for GGG; with LPESG (4S) peptide of 46.1 and an Avg kcat/KM for GGG; with LPETG (wt) peptide of 0.587. Besides, in data set [6], the Km,GGG (µM); listed substrate LPEAG came out at 41000 µM, the Km,GGG (µM); listed substrate LPECG is 55000 µM, the Km,GGG (µM); listed substrate LPESG came to 69000 µM and the Km,GGG (µM); listed substrate LPETG stood at 98000 µM. For the same molecule, in [7], the “conjugation of fluorophore-peptide to GGG-diblock (gel fluorescence), cognate pair” value is “Significant peptide-diblock conjugation was observed only for cognate pairs of enzyme and substrate, with no detectable off-target substrate conjugation”; the “modification of GGG-PEG-functionalized 96-well plates (fluorescence), cognate pair” value is reported as “Each enzyme exhibited significant modification only on its cognate substrate”. Moreover, in data set [8], the Michaelis-Menten constant (Km) amounted to 387 µM; the Rel. Activity (fold below the enzyme's best substrate, LPESG) was determined as 898 fold; the specificity constant (kcat/Km) is 20.2 M⁻¹ s⁻¹. Besides, in data set [12], the “conjugation efficiency in human plasma, with supplemental calcium (densitometry)” value is reported as 1.8% or 57.6% by eSrtA(4S-9) in the absence or presence of supplemental calcium, respectively; the “conjugation efficiency in human plasma, without supplemental calcium (densitometry)” value is given as 1.8% or 57.6% by eSrtA(4S-9) in the absence or presence of supplemental calcium, respectively; the “labeling of human plasma proteins with Gly-Gly-Gly-Lys(Biotin)” value is “identified a single transpeptidation product (FIG. 21C-D), identified by mass spectrometry and confirmed by Western blot as fetuin A”.

Source of the values: patent US20160208233A1 (Harvard, published 2016).
